Experimental data as given in patent US20020151477, “Nuclear receptor coactivator” (published 2002).

Assays:
TRα/RXRα heterodimer = target: T1, TRα/RXRα heterodimer (Homo sapiens (TRα) / Rattus norvegicus …, UniProt P10827-2;Q05343 P10827-2:1-410,Q05343:1-467); experiment: EMSA; with and without T3 / 9-cis RA; GST alone does not interact with the complex; on ice; details: tags: pCMVhTRα and pBKCMVrRXRα, rabbit reticulocyte lysate TNT; label: 32P (dCTP)
T1 sequence 1: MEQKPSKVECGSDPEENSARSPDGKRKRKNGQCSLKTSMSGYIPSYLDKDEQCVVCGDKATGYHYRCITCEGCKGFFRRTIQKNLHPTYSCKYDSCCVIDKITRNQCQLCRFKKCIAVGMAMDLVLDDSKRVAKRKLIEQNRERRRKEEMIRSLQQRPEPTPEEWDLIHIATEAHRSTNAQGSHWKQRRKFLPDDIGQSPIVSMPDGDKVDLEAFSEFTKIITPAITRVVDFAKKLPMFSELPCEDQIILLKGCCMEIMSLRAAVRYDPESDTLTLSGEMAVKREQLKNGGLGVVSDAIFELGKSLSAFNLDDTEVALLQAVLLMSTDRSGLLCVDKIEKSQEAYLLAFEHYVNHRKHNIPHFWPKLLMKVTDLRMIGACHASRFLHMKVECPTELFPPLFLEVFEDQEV
T1 sequence 2: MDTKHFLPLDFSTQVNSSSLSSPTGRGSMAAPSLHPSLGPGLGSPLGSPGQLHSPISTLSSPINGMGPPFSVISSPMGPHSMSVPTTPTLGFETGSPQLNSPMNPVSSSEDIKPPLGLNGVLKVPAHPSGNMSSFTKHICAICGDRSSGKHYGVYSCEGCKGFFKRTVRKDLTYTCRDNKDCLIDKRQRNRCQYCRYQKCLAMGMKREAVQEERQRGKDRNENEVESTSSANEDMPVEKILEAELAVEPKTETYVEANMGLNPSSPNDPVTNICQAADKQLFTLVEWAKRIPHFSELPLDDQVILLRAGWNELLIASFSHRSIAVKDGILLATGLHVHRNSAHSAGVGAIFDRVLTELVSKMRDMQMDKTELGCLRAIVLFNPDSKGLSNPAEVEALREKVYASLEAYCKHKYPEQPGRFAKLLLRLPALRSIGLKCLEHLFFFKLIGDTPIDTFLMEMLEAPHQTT

TRβ/RXRα heterodimer = target: T2, TRβ/RXRα heterodimer (Homo sapiens (TRβ) / Rattus norvegicus …, UniProt P10828;Q05343 P10828:1-461,Q05343:1-467); experiment: EMSA; oligomeric complex with GST-RAP250; details: tags: pCMVhTRβ and pBKCMVrRXRα, rabbit reticulocyte lysate TNT; label: 32P (dCTP)
T2 sequence 1: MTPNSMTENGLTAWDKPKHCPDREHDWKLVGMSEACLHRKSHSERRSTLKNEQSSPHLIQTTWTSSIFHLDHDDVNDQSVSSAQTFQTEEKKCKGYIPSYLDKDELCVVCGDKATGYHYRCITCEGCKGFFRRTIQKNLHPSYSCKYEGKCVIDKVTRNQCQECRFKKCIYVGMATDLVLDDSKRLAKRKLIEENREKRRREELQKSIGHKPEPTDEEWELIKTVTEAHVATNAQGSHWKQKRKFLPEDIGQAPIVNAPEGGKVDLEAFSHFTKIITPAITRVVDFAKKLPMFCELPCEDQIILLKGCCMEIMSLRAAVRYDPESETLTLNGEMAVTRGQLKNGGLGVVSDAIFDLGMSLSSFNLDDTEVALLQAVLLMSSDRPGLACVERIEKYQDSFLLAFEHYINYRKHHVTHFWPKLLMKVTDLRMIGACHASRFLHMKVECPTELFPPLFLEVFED
T2 sequence 2: T1 sequence 2

[1] = target: T3, TRα/RXRα + GST-RAP250 (818-931) complex (Homo sapiens (TRα) / Rattus norvegicus …, UniProt P10827-2;Q05343;Q9JL19 P10827-2:1-410,Q05343:1-467,Q9JL19:818-931); experiment: EMSA; weak supershift without ligand, pronounced with T3 and/or 9-cis RA; details: tags: GST-RAP250 purified from E. coli; label: 32P (dCTP)
T3 chain 1: T1 sequence 1
T3 chain 2: T1 sequence 2
T3 chain 3: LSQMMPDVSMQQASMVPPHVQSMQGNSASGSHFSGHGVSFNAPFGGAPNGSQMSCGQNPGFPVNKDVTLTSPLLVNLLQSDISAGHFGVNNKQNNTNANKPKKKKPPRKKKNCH

Measured: binding result

B1: DR4-TRE (dsDNA)
DNA 1: TCGATCAGGTCATTTCAGGTCAGAG
DNA 2: CTCTGACCTGAAATGACCTGATCGA
binds: all assays above
